In publication PMC11514446, “Transcription start site scanning requires the fungi-specific hydrophobic loop of Tfb3” (Nucleic Acids Research, 2024):

T1: Rad3 (subunit of core TFIIH / TFIIH-ΔTFIIK) (S. cerevisiae, UniProt P06839 1-778)
T1 construct: Rad3, S. cerevisiae, subunit of the seven-subunit core TFIIH; contains the ARCH domain; Stood in the assay as a subunit of core TFIIH inside the reconstituted PIC-ΔTFIIK; also called XPD of metazoan TFIIH (homolog)
T1 sequence (looked up): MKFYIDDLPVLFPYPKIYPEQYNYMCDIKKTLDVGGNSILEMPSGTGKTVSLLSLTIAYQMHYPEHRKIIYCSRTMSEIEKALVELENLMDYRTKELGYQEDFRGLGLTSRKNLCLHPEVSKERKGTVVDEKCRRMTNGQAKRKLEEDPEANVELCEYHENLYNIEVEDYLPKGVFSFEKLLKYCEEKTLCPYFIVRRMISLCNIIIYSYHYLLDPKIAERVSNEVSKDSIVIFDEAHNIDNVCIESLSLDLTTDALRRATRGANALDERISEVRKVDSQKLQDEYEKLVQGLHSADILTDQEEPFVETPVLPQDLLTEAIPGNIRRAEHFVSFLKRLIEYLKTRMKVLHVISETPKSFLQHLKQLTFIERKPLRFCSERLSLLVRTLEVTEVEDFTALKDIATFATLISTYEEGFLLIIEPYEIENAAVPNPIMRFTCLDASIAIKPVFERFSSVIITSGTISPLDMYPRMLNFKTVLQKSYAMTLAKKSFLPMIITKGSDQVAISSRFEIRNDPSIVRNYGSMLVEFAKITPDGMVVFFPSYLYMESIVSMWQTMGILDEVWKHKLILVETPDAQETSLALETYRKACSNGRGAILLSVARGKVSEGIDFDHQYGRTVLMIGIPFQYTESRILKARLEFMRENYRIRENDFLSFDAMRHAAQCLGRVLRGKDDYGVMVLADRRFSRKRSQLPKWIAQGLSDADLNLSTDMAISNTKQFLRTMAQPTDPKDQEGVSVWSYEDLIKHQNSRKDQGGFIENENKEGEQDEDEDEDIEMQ

B1: Tfa2 (subunit of TFIIE) (natural protein, S. cerevisiae, UniProt P36145 1-328, looked up)
chain: MSKNRDPLLANLNAFKSKVKSAPVIAPAKVGQKKTNDTVITIDGNTRKRTASERAQENTLNSAKNPVLVDIKKEAGSNSSNAISLDDDDDDEDFGSSPSKKVRPGSIAAAALQANQTDISKSHDSSKLLWATEYIQKKGKPVLVNELLDYLSMKKDDKVIELLKKLDRIEFDPKKGTFKYLSTYDVHSPSELLKLLRSQVTFKGISCKDLKDGWPQCDETINQLEEDSKILVLRTKKDKTPRYVWYNSGGNLKCIDEEFVKMWENVQLPQFAELPRKLQDLGLKPASVDPATIKRQTKRVEVKKKRQRKGKITNTHMTGILKDYSHRV
notes: Tfa2, S. cerevisiae, subunit of TFIIE; contains the WH domain; Stood in the assay as a subunit of TFIIE inside the reconstituted PIC-ΔTFIIK
B2: Tfa1 (subunit of TFIIE) (natural protein, S. cerevisiae, UniProt P36100 1-482, looked up)
chain: MDRPIDDIVKNLLKFVVRGFYGGSFVLVLDAILFHSVLAEDDLKQLLSINKTELGPLIARLRSDRLISIHKQREYPPNSKSVERVYYYVKYPHAIDAIKWKVHQVVQRLKDDLDKNSEPNGYMCPICLTKYTQLEAVQLLNFDRTEFLCSLCDEPLVEDDSGKKNKEKQDKLNRLMDQIQPIIDSLKKIDDSRIEENTFEIALARLIPPQNQSHAAYTYNPKKGSTMFRPGDSAPLPNLMGTALGNDSSRRAGANSQATLHINITTASDEVAQRELQERQAEEKRKQNAVPEWHKQSTIGKTALGRLDNEEEFDPVVTASAMDSINPDNEPAQETSYQNNRTLTEQEMEERENEKTLNDYYAALAKKQAKLNKEEEEEEEEEEDEEEEEEEEMEDVMDDNDETARENALEDEFEDVTDTAGTAKTESNTSNDVKQESINDKTEDAVNATATASGPSANAKPNDGDDDDDDDDDEMDIEFEDV
notes: Tfa1, S. cerevisiae, subunit of TFIIE; Stood in the assay as a subunit of TFIIE inside the reconstituted PIC-ΔTFIIK
B3: Rpb4 (subunit of RNA polymerase II) (natural protein, S. cerevisiae, UniProt P20433 1-221, looked up)
chain: MNVSTSTFQTRRRRLKKVEEEENAATLQLGQEFQLKQINHQGEEEELIALNLSEARLVIKEALVERRRAFKRSQKKHKKKHLKHENANDETTAVEDEDDDLDEDDVNADDDDFMHSETREKELESIDVLLEQTTGGNNKDLKNTMQYLTNFSRFRDQETVGAVIQLLKSTGLHPFEVAQLGSLACDTADEAKTLIPSLNNKISDDELERILKELSNLETLY
notes: Rpb4, S. cerevisiae, subunit of RNA polymerase II; Stood in the assay as a subunit of pol II inside the reconstituted PIC-ΔTFIIK

molecular target: T1, Rad3 (subunit of core TFIIH / …); assay: cryo-EM structure; PIC-ΔTFIIK reconstituted from purified factors (TFIIA, TFIIB, TBP, TFIIE, TFIIF, TFIIH-ΔTFIIK, pol II, TFIIS) on a HIS4 promoter DNA fragment, nucleotide-free; glycerol gradient with 0-0.125% glutaraldehyde fixation; two forms from 3D classification (form 1 at 3.7 Å, form 2 at 3.8 Å); details: both partners purified

Binding result, binds:
B1
B2
B3
